# Measurements from patent US6855515B1, “Autoantigenic fragments, methods and assays” (Merck & Co., Inc., priority 1998, dated 2005).
# B1: Alanyl tRNA synthetase (PL-12): autoantigen targeted in autoimmune myositis (protein)
# chain: MDSTLTASEIRQRFIDFFKRNEHTYVHSSATIPLDDPTLLFANAGMNQFKPIFLNTIDPSHPMAKLSRAANTQKCIRAGGKHNDLDDVGKDVYHHTFFEMLGSWSFGDYFKELACKMALELLTQEFGIPIERLYVTYFGGDEAAGLEADLECKQIWQNLGLDDTKILPGNMKDNFWEMGDTGPCGPCSEIHYDRIGGRDAAHLVNQDDPNVLEIWNLVFIQYNREADGILKPLPKKSIDTGMGLERLVSVLQNKMSNYDTDLFVPYFEAIQKGTGARPYTGKVGAEDADGIDMAYRVLADHARTITVALADGGRPDNTGRGYVLRRILRRAVRYAHEKLNASRGFFATLVDVVVQSLGDAFPELKKDPDMVKDIINEEEVQFLKTLSRGRRILDRKIQSLGDSKTIPGDTAWLLYDTYGFPVDLTGLIAEEKGLVVDMDGFEEERKLAQLKSQGKGAGGEDLIMLDIYAIEELRARGLEVTDDSPKYNYHLDSSGSYVFENTVATVMALRREKMFVEEVSTGQECGVVLDKTCFYAEQGGQIYDEGYLVKVDDSSEDKTEFTVKNAQVRGGYVLHIGTIYGDLKVGDQVWLFIDEPRRRPIMSNHTATHILNFALRSVLGEADQKGSLVAPDRLRFDFTAKGAMSTQQIKKAEEIANEMIEAAKAVYTQDCPLAAAKAIQGLRAVFDETYPDPVRVVSIGVPVSELLDDPSGPAGSLTSVEFCGGTHLRNSSHAGAFVIVTEEAIAKGIRRIVAVTGAEAQKALRKAESLKKCLSVMEAKVKAQTAPNKDVQREIADLGEALATAVIPQWQKDELRETLKSLKKVMDDLDRASKADVQKRVLEKTKQFIDSNPNQPLVILEMESGASAKALNEALKLFKMHSPQTSAMLFTVDNEAGKITCLCQVPQNAANRGLKASEWVQQVSGLMDGKGGGKDVSAQATGKNVGCLQEALQLATSFAQLRLGDVKN
# B2: threonyl tRNA synthetase: autoantigen in autoimmune myositis (protein)
# chain: MFEEKASSPSGKMGGEEKPIGAGEEKQKEGGKKKNKEGSGDGGRAELNPWPEYIYTRLEMYNILKAEHDSILAEKAEKDSKPIKVTLPDGKQVDAESWKTTPYQIACGISQGLADNTVIAKVNNVVWDLDRPLEEDCTLELLKFEDEEAQAVYWHSSAHIMGEAMERVYGGCLCYGPPIENGFYYDMYLEEGGVSSNDFSSLEALCKKIIKEKQAFERLEVKKETLLAMFKYNKFKCRILNEKVNTPTTTVYRCGPLIDLCRGPHVRHTGKIKALKIHKNSSTYWEGKADMETLQRIYGISFPDPKMLKEWEKFQEEAKNRDHRKIGRDQELYFFHELSPGSCFFLPKGAYIYNALIEFIRSEYRKRGFQEVVTPNIFNSRLWMTSGHWQHYSENMFSFEVEKELFALKPMNCPGHCLMFDHRPRSWRELPLRLADFGVLHRNELSGALTGLTRVRRFQQDDAHIFCAMEQIEDEIKGCLDFLRTVYSVFGFSFKLNLSTRPEKFLGDIEVWDQAEKQLENSLNEFGEKWELNSGDGAFYGPKIDIQIKDAIGRYHQCATIQLDFQLPIRFNLTYVSHDGDDKKRPVIVHRAILGSVERMIAILTENYGGKWPFWLSPRQVMVVPVGPTCDEYAQKVRQQFHDAKFMADIDLDPGCTLNKKIRNAQLAQYNFILVVGEKEKISGTVNIRTRDNKVHGERTISETIERLQQLKEFRSKQAEEEF
# B3: SRP-72: autoantigen (protein)
# chain: ASGGSGGVSVPALWSEVNRYGQNGDFTRALKTVNKILQINKDDVTALHCKVVCLIQNGSFKEALNVINTHTKVLANNSLSFEKAYCEYRLNRIENALKTIESANQQTDKLKELYGQVLYRLERYDECLAVYRDLVRNSQDDYDEERKTNLSAVVAAQSNWEKVVPENLGLQEGTHELCYNTACALIGQGQLNQAMKILQKAEDLCRRSLSEDTDGTEEDPQAELAIIHGQMAYILQLQGRTEEALQLYNQIIKLKPTDVGLLAVIANNIITINKDQNVFDSKKKVKLTNAEGVEFKLSKKQLQAIEFNKALLAMYTNQAEQCRKISASLQSQSPEHLLPVLIQAAQLCREKQHTKAIELLQEFSDQHPENAAEIKLTMAQLKISQGNISKACLILRSIEELKHKPGMVSALVTMYSHEEDIDSAIEVFTQAIQWYQNHQPKSPAHLSLIREAANFKLKYGRKKEAISDLQQLWKQNPKDIHTLAQLISAYSLVDPEKAKALSKHLPSSDSMSLKVDVEALENSAGATYIRKKGGKVTGDSQPKEQGQGDLKKKKKKKKGKLPKNYDPKVTPDPERWLPMRERSYYRGRKKGKKKDQIGKGTQGATAGASSELDASKTVSSPPTSPRPGSAATVSASTSNIIPPRHQKPAGAPATKKKQQQKKKKGGKGGW
# B4: PMS1: autoantigen (protein)
# chain: MKQLPAATVRLLSSSQIITSVVSVVKELIENSLDAGATSVDVKLENYGFDKIEVRDNGEGIKAVDAPVMAMKYYTSKINSHEDLENLTTYGFRGEALGSICCIAEVLITTRTAADNFSTQYVLDGSGHILSQKPSHLGQGTTVTALRLFKNLPVRKQFYSTAKKCKDEIKKIQDLLMSFGILKPDLRIVFVHNKAVIWQKSRVSDHKMALMSVLGTAVMNNMESFQYHSEESQIYLSGFLPKCDADHSFTSLSTPERSFIFINSRPVHQKDILKLIRHHYNLKCLKESTRLYPVFFLKIDVPTADVDVNLTPDKSQVLLQNKESVLIALENLMTTCYGPLPSTNSYENNKTDVSAADIVLSKTAETDVLFNKVESSGKNYSNVDTSVIPFQNDMHNDESGKNTDDCLNHQISIGDFGYGHCSSEISNIDKNTKNAFQDISMSNVSWENSQTEYSKTCFISSVKHTQSENGNKDHIDESGENEEEAGLENSSEISADEWSRGNILKNSVGENIEPVKILVPEKSLPCKVSNNNYPIPEQMNLNEDSCNKKSNVIDNKSGKVTAYDLLSNRVIKKPMSASALFVQDHRPQFLIENPKTSLEDATLQIEELWKTLSEEEKLKYEEKATKDLERYNSQMKRAIEQESQMSLKDGRKKIKPTSAWNLAQKHKLKTSLSNQPKLDELLQSQIEKRRSQNIKMVQIPFSMKNLKINFKKQNKVDLEEKDEPCLIHNLRFPDAWLMTSKTEVMLLNPYRVEEALLFKRLLENHKLPAEPLEKPIMLTESLFNGSHYLDVLYKMTADDQRYSGSTYLSDPRLTANGFKIKLIPGVSITENYLEIEGMANCLPFYGVADLKEILNAILNRNAKEVYECRPRKVISYLEGEAVRLSRQLPMYLSKEDIQDIIYRMKHQFGNEIKECVHGRPFFHHLTYLPETT
# B5: glycyl tRNA synthetase: autoantigen in autoimmune myositis (protein)
# chain: MDGAGAEEVLAPLRLAVRQQGDLVRKLKEDKAPQVDVDKAVAELKARKRVLEAKELALQPKDDIVDRAKMEDTLKRRFFYDQAFAIYGGVSGLYDFGPVGCALKNNIIQTWRQHFIQEEQILEIDCTMLTPEPVLKTSGHVDKFADFMVKDVKNGECFRADHLLKAHLQKLMSDKKCSVEKKSEMESVLAQLDNYGQQELADLFVNYNVKSPITGNDLSPPVSFNLMFKTFIGPGGNMPGYLRPETAQGIFLNFKRLLEFNQGKLPFAAAQIGNSFRNEISPRSGLIRVREFTMAEIEHFVDPSEKDHPKFQNVADLHLYLYSAKAQVSGQSARKMRLGDAVEQGVINNTVLGYFIGRIYLYLTKVGISPDKLRFRQHMENEMAHYACDCWDAESKTSYGWIEIVGCADRSCYDLSCHARATKVPLVAEKPLKEPKTVNVVQFEPSKGAIGKAYKKDAKLVMEYLAICDECYITEMEMLLNEKGEFTIETEGKTFQLTKDMINVKRFQKTLYVEEVVPNVIEPSFGLGRIMYTVFEHTFHVREGDEQRTFFSFPAVVAPFKCSVLPLSQNQEFMPFVKELSEALTRHGVSHKVDDSSGSIGRRYARTDEIGVAFGVTIDFDTVNKTPHTATLRDRDSMRQIRAEISELPSIVQDLANGNITWADVEARYPLFEGQETGKKETIEE
# Target: T1, granzyme B (Homo sapiens, UniProt P10144)
# T1 construct: Some of these preparations were used for the further purification of granzyme B (Tschopp, 1994); endogenous in cells; host or cells: YT cells (human NK cell line), cytoplasmic granules
# T1 sequence (P10144 21-247): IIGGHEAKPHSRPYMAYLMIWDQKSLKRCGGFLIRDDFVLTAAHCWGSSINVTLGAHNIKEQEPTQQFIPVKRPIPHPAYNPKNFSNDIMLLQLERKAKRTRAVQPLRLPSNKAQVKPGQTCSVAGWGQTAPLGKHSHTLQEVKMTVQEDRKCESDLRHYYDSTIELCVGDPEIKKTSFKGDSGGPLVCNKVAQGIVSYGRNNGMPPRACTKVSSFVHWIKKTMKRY
# Experiment: Susceptibility of autoantigens to cleavage by purified granzyme B (HeLa lysate immunoblot or immunoprecipitates)
# Type: biochemical
# Settings: in vitro
# Protocol: To determine whether susceptibility to direct cleavage by granzyme B was an isolated feature of PARP, NuMA and DNA-PKcs shown above, or whether it was a more general feature of autoantigens, a variety of well-defined autoantigens selected from across the spectrum of systemic autoimmune diseases were tested for susceptibility to cleavage by purified granzyume B. The efficiency of cleavage of the substrates by purified granzyme B was also noted (Table 3). Initially, a series of autoantibodies of well-defined specificity were used to immunoblot lysates of HeLa cells that had been incubated in vitro with or without granzyme B. Lysates were pre-treated with iodoacetamide (IAA) to prevent interference by endogenous caspase activity.
# To perform these studies, HeLa cells were radiolabeled with [^35S] methionine/cysteine, and proteins were immunoprecipitated using human autoantibodies. Protein A-agarose beads containing washed precipitated proteins were resuspended in buffer supporting the activity of granzyme B, and incubated in the absence or presence of added purified granzyme B. Reaction products were visualized using SDS-PAGE and fluorography. To confirm the validity of this approach, several different autoantigens known to be cleaved by granzyme B, as well as several autoantigens and non-autoantigens that are not cleaved by granzyme B, were tested. Using autoantibodies that both immunoblot and immunprecipitate, the cleavage profiles obtained using granzyme B to cleave molecules in lysates (followed by detection with immunoblotting), and after immunoprecipitation (from [^35S]methionine-labeled HeLa lysate) were compared. Identical results were obtained using these 2 methods for cleaved autoantigens (topoisomerase-1, Mi-2, RNA polymerase II large subunit, Ku-70, PARP, and NOR-90), uncleaved autoantigens (Ku-80, Ro 60k), and control substrates (β-tubulin, vinculin). […] Of note, all these additional autoantigens (with the exception of RNA polymerase I) are targeted in autoimmune myositis. However, two other tRNA synthetases (threonyl tRNA synthetase and glycyl tRNA synthetase) that are also autoantigens in autoimmune myositis, were not cleaved using this approach.
row,Molecule,susceptibility to cleavage by granzyme B
1,B1,cleaved
2,B2,not cleaved
3,B3,efficiently cleaved
4,B4,efficiently cleaved
5,B5,not cleaved

# Target: caspase-8 (Homo sapiens, UniProt Q14790)
# Sequence (Q14790 217-374 limits assumed, species assumed): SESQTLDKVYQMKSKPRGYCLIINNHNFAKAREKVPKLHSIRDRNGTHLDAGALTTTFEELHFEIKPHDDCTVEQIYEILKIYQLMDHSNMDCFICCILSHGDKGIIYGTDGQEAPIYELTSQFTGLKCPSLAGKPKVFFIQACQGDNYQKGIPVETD
# Sequence (Q14790 385-479 limits assumed, species assumed): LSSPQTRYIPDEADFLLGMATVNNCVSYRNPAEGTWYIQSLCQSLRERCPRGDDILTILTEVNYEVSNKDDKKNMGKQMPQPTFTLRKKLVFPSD
# Experiment: Cleavage of substrates by purified caspase-8
# Type: biochemical
# Settings: 50 nM purified caspase-8; HeLa lysates treated with iodoacetamide, or radiolabeled IvTT substrate
# Protocol: To confirm that these substrates were not cleaved by group III caspases, the substrates were incubated with 50 nM purified caspase-8. Cleavage assays were performed in HeLa cell lysates in which endogenous caspases had first been irreversibly inactivated by 1 mM iodoacetamide (4° C. for 15 min), prior to addition of 5 mM DTT to facilitate exogenous caspase-8 activity. No cleavage of topoisomerase-1, Mi-2, U1-70 kDa, PARP, Ku-70, RNA polymerase II large subunit, SRP-72, NuMA or Ki-67 occurred. Caspase-8 was indeed active in these lysates, as evidenced by robust caspase-3 cleavage products of PARP and U1-70 kDa seen when the IAA ‘poisoning’ step was omitted. Radiolabeled PMS1 and PMS2 (generated by IvTT) were also not cleaved by purified caspase-8.
row,Molecule,cleavage by caspase-8
1,B3,No cleavage
2,B4,not cleaved
